# Measurements taken from a protein production outcome set (Wang et al. 2014).
# Assay: label from the status in PepcDB records
row,Sequence,protein production
1,MILINKRAEKQDYQTILAIWEKSVIVTHDFLTAEDRQFYKEQIPLFLDNVELFLWFAGEEVIGFSGTSERELDMLFLDPVATGNGYGSQILGWLIENKRINLVDVNEQNENATRFYLKHGFVVSSRSDLDGFGKPYPILQLQLK,not failed
2,MSLFRQGSQFMIIGALQLAVDCGIFIAATAAGMPAVPANLLGRIGGAMLGFWLNGRYTFAQQGDARLGWRRFRRFAAMWLTLTLISTWLLSTTVDLLGLRQAWLAKPLVEGGLAIVSFFLGRHVVYR,failed
3,MPSIIDETVFGEPSRRLAVVYLCGALLLAGQQGYYVIIEGATPFYAGLLLSAGMALSGIAESLPKPRRRAAGVLRLTALVVLVSLLVILFVTPDLLTN,failed
4,TPTEGLTIGDKAPTFTICGEKQLIDLKDLRGKYVLLSFWASYDALSRMQNATLNHAVAQADNVEMVSVSFDEYKSIFNETIKKDQISTSNCFVELAGVSSDLYQTYRLKRGFKNFLLDENGVIVAKDVTVSELSS,failed
5,MKFWRPGITGKLFLAIFATCIVLLISMHWAVRISFERGFIDYIKHGNEQRLQLLSDALGEQYAQHGNWRFLRNNDRFVFQILRSFEHDNSEDKPGPGMPPHGWRTQFWVVDQNNKVLVGPRAPIPPDGTRRPILVNGAEVGAVIASPVERLTRNTDINFDKQQRQTSWLIVALATLLAALATFLLARGLLAPVKRLVDGTHKLAAGDFTTRVTPTSEDELGKLAQDFNQLASTLEKNQQMRRDFMADISHELRTPLAVLRGELEAIQDGVRKFTPETVASLQAEVGTLTKLVDDLHQLSMSDEGALAYQKAPVDLIPLLEVAGGAFRERFASRGLKLQFSLPDSITVFGDRDRLMQLFNNLLENSLRYTDSGGSLQISAGQRDKTVRLTFADSAPGVSDDQLQKLFERFYRTEVPATVPAGSGLGLAICLNIVEAHNGRIIAAHSPFGGVSITVELPLERDLQREV,failed
6,MERTLSDSQIRYIKARERRNLRGAQAFICLFLSLFVLILLQGVWLLISPRLACALLVPWAIFLWWWVFHRLKGQQSEVAARTQWLQGQFSATWVSSHRNGHFSYSFGDYPIAACCRLNNLFNEKRLDLHTRYRVEAALLTCSQTASHSYYLFGDTLVPVTRAPETDEQPGS,failed
7,METQKTQAENPPKPATSSCRKKTKDDANFLEDVKDHIDDFINASMDDHKNCFNKTIKKMFGLSKAVADKQQSEAKGGVESYLPLQTTVSD,failed
8,MTTPLSPEATPPHGDLASGNVTRRILGIVVFNFIAYLSVGLPIAVVPGFVHGDLGYSAVLAGLAVSIQYLATLLSRPWAGSLCDMKGPKRSVLTGLLLCAGSGLLMLVAAQFAGNDWLALGWLLSSRLMLGAGESLVTTGTIAWGIGSVGARHTAKVISWNGVTTYGALAVGAPVGVLLAGHGGLTAIGIVTSVIAGASWLLARRQAAVPILKGERLPFRSVFRAMSPFGLCLGLGSVGFGAITAFITLYYAGHGWDHAALALTALGTCFVLTRLIMADSITRFGGYPVALVSFAVEAAGLAMLWLAQAPWQALAGAAVVGFGFSLVFPSLGIEAVKRVPATNRGSALGAYALFFDFSLGLTGPVAGLITKHAGYPAVYLFAALAAVLALVLSQVLAARYRDRLAPAT,failed
9,MPDSPTLLDLFAEDIGHANQLLQLVDEEFQALERRELPVLQQLLGAKQPLMQQLERNGRARAEILREAGVSLDREGLARYARERADGAELLARGDELGELLERCQQANLRNGRIIRANQASTGSLLNILRGQDAPSLYDSRGGTASSSRQRPLSKA,not failed
10,MESLDSVSIAILLGSVLVMAGILSSLLALRFGAPLLLVFLVIGILAGESGPGGINFNDLGTTYLVGSVALALILFDGGLKTRFSSIKAVLAPSMGLATVGVLLTALVTAPVARYALDLSWVEALLASAVVASTDAAAVFLLVHAQGLRLRPRVGATLEVESGTNDPFAVFLTLMLVELITRGESSILHVLIEFVREAALGAVIGVVGGRVVVMALNRVALPQGLHAPFVTTAALVVFGAAQMSHASGFLAVYLAGMIIGNQPTRAHNSVVAFLDAATWLAQIVMFVLLGLLVSPQRLMGSIGPAVVIALALMLVARPLAVFICLAPFRFNWRERLFIAWVGLRGAVAIFLASIPMLVGLSKAYLYFDVAFVVVLISLMLQGWTLAPAARKLLVALPRSDRGPRRIELDLPGQLEQQLVGYAVRPKSLYLKRGLIPSWSKPTLVIRDQRILTPEEAEPVAPGDYVYLLAPPEKAAALDRFFVDMPPSTAPDPHLLGDFIVPGETSLGDLAAAYGISVPPGQEALTLADYFDIYLDQAPMVGATLPLDSIVLVARSLGGGRVNVVGLRLPEEEDEAPPPTRLAKVRTKLSEVWSLLAGV,failed
